Source: the supplement of paper PMC11502859

test system: HEK293T; assay: median enrichment of reporter reads in eGFP-reduced (low/intermediate) vs eGFP-high sorted cells (eGFP-extension fusion abundance) (ratio); higher = stronger loss of eGFP-fusion protein abundance (more destabilising extension)
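Note: lentiviral eGFP-IRES-mCherry reporter pool sorted by FACS 96 h post-transduction, gated on mCherry-high cells, Illumina read counts normalized per million, median across four biological replicates.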

**Q.** Which median enrichment does the source give for SQFNLKFLISPTTIY [TSEN2] here?
**A.** 8.83

**Q.** For “SQGGTTQAPWAPRERGGIRAGQPPGCRCQEQSQAQVAPAACPVPFPKAPLHIEGRKREFRQLHSPFTPNPVFYSPEKRRESHE [STARD8]”, which median enrichment is on record?
**A.** 1.09

**Q.** With “SQKHVHFGKQACILPVQYLHSTDGTVWRSTFSYFCESIHVGPVSRICTFVPSTVTANLSV [ARHGEF3]” as the substance, how does the median enrichment read?
**A.** 10.6

**Q.** SQL [AMBN] was tested. Which median enrichment did it give?
**A.** 0.898

**Q.** “SQPSPPSPGAAWGGKSCSLRRAQLAGAVPGHGRFPVTHSLRKPGVIGHLAGQRSWGWF [CLCN6]” was tested. Which median enrichment did it give?
**A.** 3.27

**Q.** For “SQREENILVLFFFQKKRKIKEIYPLLPLHLSQ [SLITRK3]”, which median enrichment is on record?
**A.** 40.1

**Q.** For SQSG [PARD6A], which median enrichment is on record?
**A.** 1.41

**Q.** How did the median enrichment turn out when “SRATGPQQCEGSLAAHPAAGAQPLPGMRLSADGETATQSFGLCVCVCVCVCVCAHPRVPVCVRILPPGAEVPWVSPLLCNGLL [FGFR3]” was run?
**A.** 6.49

**Q.** Which median enrichment does the source give for “SRDLDLGGVVRSSGRVPPGSPGEYMSPALGGVCYWPPTFLPRWTVLL [OXCT2]” here?
**A.** 3.71

**Q.** How did the median enrichment turn out when SREDVKCLSVNCSAVSKQSSNLQY [RIT1] was run?
**A.** 0.34

**Q.** With SREHENGSMTLPDTDAT [TP53] as the substance, how does the median enrichment read?
**A.** 0.734

**Q.** With SRETVGG [JUN] as the substance, how does the median enrichment read?
**A.** 3.4

**Q.** Which median enrichment does the source give for SRFCHVNVSLSGLQLRRKRRKT [SMIM11A] here?
**A.** 5.41

**Q.** SRGSHAPPPPCHSLGPHLPLP [SDC1] was tested. Which median enrichment did it give?
**A.** 0.282

**Q.** How did the median enrichment turn out when “SRHIQVSFHHFIYKGDQCHRRVPEEMRSQGLS [MPV17L]” was run?
**A.** 4.12

**Q.** With “SRKFLRCCHLLEMRFVLCLNGLFFKKTKNQMKEHSWGFLFVCVCMCKLMSNCICRSVIVLYCVNYFHCGYFSR [U2SURP]” as the substance, how does the median enrichment read?
**A.** 5.89

**Q.** With SRL [ICAM4] as the substance, how does the median enrichment read?
**A.** 0.718

**Q.** For SRMGLSL [APOBEC3G], which median enrichment is on record?
**A.** 0.634

**Q.** SRNMSSQGIETALNSLTSRL [PCLO] was tested. Which median enrichment did it give?
**A.** 3.6

**Q.** How did the median enrichment turn out when SRPEVQATLASGTPPRL [RTP5] was run?
**A.** 0.536

**Q.** Which median enrichment does the source give for SRPHTPALTQLLLGT [GRM2] here?
**A.** 5.49

**Q.** For SRPWSESAPVGILPPPCWPPFSPQPLR [PGAP3], which median enrichment is on record?
**A.** 14.1

**Q.** For SRR [TMEM52], which median enrichment is on record?
**A.** 0.803

**Q.** Which median enrichment does the source give for “SRRRLGLCSQGLWLMMIDAPFSHALSSHLASAGQNPSPDVCNLCLEYLGVVEEQIIPSKHQALGFLEQAESQ [USP39]” here?
**A.** 3.94

**Q.** SRSRDDALFSAIYPKLFQI [PCDHB5] was tested. Which median enrichment did it give?
**A.** 2.76

**Q.** Which median enrichment does the source give for SRVSGKKHSCMSICSWNQFL [STYK1] here?
**A.** 11

**Q.** With SRY [IL32] as the substance, how does the median enrichment read?
**A.** 0.749

**Q.** How did the median enrichment turn out when “SSAYLGLPKCWDYRREPNAQPRGVVFRDISESEGETQD [APOC1]” was run?
**A.** 1.19

**Q.** “SSCCHQLALWPRARCLPFMFPHLQSELVVPDDLRSHDLLTCPMILYFVGRSIKQLLLLLCANHSCNFCSAYLPLFEKHAKGSF [ADAMTSL1]” was tested. Which median enrichment did it give?
**A.** 4.11

**Q.** Which median enrichment does the source give for “SSFIGLNTVCFYQSGHWHCLLFYNHVDTSISKENLSTR [RARS]” here?
**A.** 8.65

**Q.** With SSKEVILFCLLIIM [CHMP2B] as the substance, how does the median enrichment read?
**A.** 6.82

**Q.** With SSLPWAG [TMEM266] as the substance, how does the median enrichment read?
**A.** 5.32

**Q.** For “SSMMHGDFHFHIFPFFCFCFSRNGGNPVYSMPVLSYSSLLLYILLLYQKN [HIVEP2]”, which median enrichment is on record?
**A.** 33.7

**Q.** Which median enrichment does the source give for SSNLF [ADPRM] here?
**A.** 0.584

**Q.** Which median enrichment does the source give for SSS [Ser03] here?
**A.** 0.352

**Q.** SSSAC [BPTF] was tested. Which median enrichment did it give?
**A.** 0.596

**Q.** SSSS [Ser04] was tested. Which median enrichment did it give?
**A.** 0.471

**Q.** How did the median enrichment turn out when SSSSLFLGNSLLFLPHGRCK [MAX] was run?
**A.** 4.93

**Q.** With SSSSS [Ser05] as the substance, how does the median enrichment read?
**A.** 0.298

**Q.** For SSSSSS [Ser06], which median enrichment is on record?
**A.** 0.35

**Q.** For SSSSSSS [Ser07], which median enrichment is on record?
**A.** 0.279

**Q.** How did the median enrichment turn out when SSSSSSSS [Ser08] was run?
**A.** 0.512

**Q.** Which median enrichment does the source give for SSSSSSSSS [Ser09] here?
**A.** 0.295

**Q.** Which median enrichment does the source give for SSSSSSSSSS [Ser10] here?
**A.** 0.553

**Q.** For “STARIKNMFPCLSDTSLLDEARKIYMKILKIHIADFMEWTSCISTEKQQHNNTKILGTLK [CDKN1B]”, which median enrichment is on record?
**A.** 38.1

**Q.** Which median enrichment does the source give for STFKAFVK [GATA1] here?
**A.** 0.381

**Q.** How did the median enrichment turn out when “STFLHTQPLLYSTSCPGASHTPELICIILTIFSLLSPFFLFERPSLISKM [TRIM5]” was run?
**A.** 16.6

**Q.** STIEICSEM [PCDH11Y] was tested. Which median enrichment did it give?
**A.** 0.758

**Q.** With STL [PGRMC2] as the substance, how does the median enrichment read?
**A.** 0.374

**Q.** STRRPSPQKP [ERBB2] was tested. Which median enrichment did it give?
**A.** 0.591

**Q.** With STSAHILESYYS [ACADL] as the substance, how does the median enrichment read?
**A.** 0.545

**Q.** For “STSHAYQVAELGPLGQGAQATSSFVVTKQGSPFPFLLPYFVQRTRVIYIYICICLYPSPHLSDSALGTQLWAARGAVPCGSSC [SCAMP5]”, which median enrichment is on record?
**A.** 5.87

**Q.** “STSPAPLRTPPRLDGWAHASHWGPGSRRWAPTLGPRGAANHTGLRPSYPAPSPSTSTFTSPPFHFFLYVFFLLETDSIHIEYN [JUNB]” was tested. Which median enrichment did it give?
**A.** 4.9

**Q.** Which median enrichment does the source give for STVKEGVFVWTR [DSC1] here?
**A.** 2.35

**Q.** For SVAGGVTARSPDFTSFGPVLL [UTP14A], which median enrichment is on record?
**A.** 0.633

**Q.** For SVAHSGKGVLCEHVEA [GATC], which median enrichment is on record?
**A.** 0.756

**Q.** For “SVAMVKVSVAAAAMASRRRCWDCFALEPASGCPLQWLCYCMDCILDFMCMSQ [DYNLL2]”, which median enrichment is on record?
**A.** 11

**Q.** SVCAGDQINRLGCAK [NOSIP] was tested. Which median enrichment did it give?
**A.** 1.17

**Q.** For “SVDTPAPVGMDGPDFMASGTWAQRGACGRGWENKVQGRDQTAASLYMPS [ITIH3]”, which median enrichment is on record?
**A.** 32.4

**Q.** Which median enrichment does the source give for “SVFGKQQRASPLPGGLPCRFWASFPCLSLFRCAFHL [MAP2K1]” here?
**A.** 12.4

**Q.** Which median enrichment does the source give for “SVGEWAGMCILLPNSSIQDCAHIRSTRTSSHQHKNINRNAALSTV [WFDC10A]” here?
**A.** 5.12

**Q.** With “SVGQATPPSSSCLRRSHSIHWNRSWVSLCSCLSFPRDPTPLWGSGTLHCTGSLHTGRGTCAPTSETCRSPQLTCPTGAQHCTQ [MAP3K11]” as the substance, how does the median enrichment read?
**A.** 5.17
